Source: patent US20110165145A1, “IGF-II/IGF-IIE BINDING PROTEINS” (priority 2008, published 2011)

Target: insulin-like growth factor I (IGF-I) (UniProt P05019)
Experiment: cell-based or functional assay

insulin-like growth factor I (IGF-I), sequence (P05019 49-118 limits assumed): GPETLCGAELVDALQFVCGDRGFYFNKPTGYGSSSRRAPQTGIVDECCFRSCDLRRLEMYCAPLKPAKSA

IGF-I stimulated Ba/F3 cell proliferation: 30 % inhibition
Substance: Neu-IGF-II antibody (anti-IGF-II antibody, R&D system Cat# MAB292)
